Test results: patent US20260069727A1, “FORMULATIONS FOR RADIOTHERAPY AND DIAGNOSTIC IMAGING AND USE THEREOF IN TREATMENT, DIAGNOSIS AND IMAGING DISEASES” (priority 2022, published 2026)
“Also recorded” adds a separate entry of the source.

Experiments:
[1] = cited from earlier work
[2] = pH by probe (quality control); assay type: physicochemical; details: batch QC result; acceptance 4.0-8.0
[3] = Appearance / visible particles in injection (quality control); assay type: physicochemical; details: batch QC result
[4] = Radiochemical purity / stability of the formulation by radioHPLC; assay type: physicochemical
Description: The stability of the formulation relates to the stability of the complex, where the radioisotope may undergo dissociation or the complex may undergo radiolysis. The stability of the complex can be measured by considering the radiochemical purity of the formulation. Radiochemical purity is defined as the amount of the radioisotope complexed by the sarcophagine ligand expressed as a percentage of the total amount of the radioisotope present in the formulation. The radioisotope may be present in the formulation as a complex with the sarcophagine ligand, as a free radioisotope or as part of a radiolysis product. […] In the embodiments, described herein, radiochemical purity may be determined by techniques such as radioHPLC, where the amount of the radioisotope in either its complexed or free form is determined and compared with the amount of the radioisotope introduced to the formulation. A person skilled in the art would understand the necessary conditions for separation, analysis and quantification of the formulation by radioHPLC. Nonetheless, in certain embodiments, the mobile phase used to analyse a formulation as disclosed herein by radioHPLC comprises about 0.1% trifluoroacetic acid (TFA) in water. […]
Product stability was monitored up to 96 hours post End of Synthesis (EOS) for 3 validation batches of [^67Cu]Formula(Ib) in an aqueous formulation prepared as outlined above. […]

[5] = Free 67Cu in the formulation by radioTLC; assay type: physicochemical; details: batch QC result; acceptance ≤5%
Description: The stability of the complex can also be measured by considering the amount of free copper, i.e. free copper radioisotope that is intended to be complexed with the sarcophagine ligand, present in the formulation. In certain embodiments, the amount of free copper radioisotope present in formulation is not more than about 5%. In other embodiments, the amount of free copper radioisotope present in the formulation is not more than about 4%. In other embodiments, the amount of free copper present in the formulation is not more than about 3%. In other embodiments, the amount of free copper present in the formulation is not more than about 2%. In other embodiments, the amount of free copper present in the formulation is not more than about 1%. In other embodiments, the amount of free ^67Cu present in the formulation is less than about 1%. In other embodiments, the amount of free ^67Cu present in the formulation is less than about 2%.
TLC was performed with a mobile phase of 10 mM NaEDTA in 50 mM phosphate buffer using a silica gel 60 F254 aluminium backed TLC plate with dimensions of 1 cm×10 cm.

SMILES | pKa (acid dissociation constant) [1] | pH by probe [2] | Appearance/Visible particles in injection [3] | Radiochemical purity by radio-HPLC ([4]; batch QC result, acceptance ≥90%) [%] | radiochemical purity (RPC) over the stability test ([4]; up to 96 hours post End of Synthesis, 3 validation batches) [%] | Free [67Cu]Cu2+ by TLC [5] [%]
O=C(O)c1cc(O)ccc1O [gentisic acid, 2,5-dihydroxybenzoic acid] | about 2.5 |  |  |  |  | 
CC(C)CC(NC(=O)CC(O)C(CC(C)C)NC(=O)C(Cc1c[nH]cn1)NC(=O)CNC(=O)C(NC(=O)C(C)NC(=O)C(Cc1c[nH]c2ccccc12)NC(=O)C(CCC(N)=O)NC(=O)C(Cc1ccccc1)NC(=O)CCOCCNC(=O)CCCC(=O)NC12CNCCNCC(C)(CNCCNC1)CNCCNC2)C(C)C)C(N)=O (stereo not drawn) [[^67Cu]Formula (Ib), metal not drawn] |  | 6.72 | Clear ✓; also recorded: Particle-free ✓ | 94.23 | ≥ 94.0 | 0
